According to publication PMC4439037, “Distinctive Structure of the EphA3/Ephrin-A5 Complex Reveals a Dual Mode of Eph Receptor Interaction for Ephrin-A5” (PLoS ONE, 2015):

B1: human ephrin-A5 receptor-binding domain (domain or fragment)
chain: KAVADRYAVYWNSSNPRFQRGDYHIDVCINDYLDVFCPHYEDSVPEDKTERYVLYMVNFDGYSACDHTSKGFKRWECNRPHSPNGPLKFSEKFQLFTPFSLGFEFRPGREYFYISSAIPDNGRRSCLKLKVFVRPTNSCMK
modifications: deglycosylated with PNGase F
notes: also called ephrin-A5 ligand
B2: human EphA3 ligand-binding domain (domain or fragment)
chain: EVNLLDSKTIQGELGWISYPSHGWEEISGVDEHYTPIRTYQVCNVMDHSQNNWLRTNWVPRNSAQKIYVELKFTLRDCNSIPLVLGTCKETFNLYYMESDDDHGVKFREHQFTKIDTIAADESFTQMDLGDRILKLNTEIREVGPVNKKGFYLAFQDVGACVALVSVRVYFK
notes: also called EphA3 LBD; EphA3 receptor; not shown: GST, N-terminal, cleaved; 10xHis, N-terminal, cleaved

Assays:
[1] = target: B2; test: ITC; settings: both partners purified
[2] = target: B1; test: ITC; settings: both partners purified

B1
Kd [1]: 9 nM

B2
dH [2]: -2.15 kcal/mol
